Measurements from patent US20230265151A1, “GIP/GLP1 CO-AGONIST COMPOUNDS” (priority 2020, published 2023).
Numbering of substitutions follows the chain as printed. *1 amine or outer side, *2 acyl side, *3 side chain or, on linkers, in order; H or OH if unused. Where no end group is shown, it is not given here. Side-chain parts run from the residue outwards. [ ]: non-standard residue; d: D form. The star is where a group is joined. αMePhe(2-F) = C[C@](N)(Cc1ccccc1F)C(=O)O; γGlu = O=C(O)[C@H](CCC(=O)[*:2])N[*:1]; C14 diacid = O=C(O)CCCCCCCCCCCCC(=O)*; αMeY = C[C@](N)(Cc1ccc(O)cc1)C(=O)O; αMeL = CC(C)C[C@](C)(N)C(=O)O; Orn = NCCC[C@H](N)C(=O)O; AEEA = NCCOCCOCC(=O)O; Aib = CC(C)(N)C(=O)O

T1: human GIP receptor (human) (UniProt P48546)
T1 sequence (looked up): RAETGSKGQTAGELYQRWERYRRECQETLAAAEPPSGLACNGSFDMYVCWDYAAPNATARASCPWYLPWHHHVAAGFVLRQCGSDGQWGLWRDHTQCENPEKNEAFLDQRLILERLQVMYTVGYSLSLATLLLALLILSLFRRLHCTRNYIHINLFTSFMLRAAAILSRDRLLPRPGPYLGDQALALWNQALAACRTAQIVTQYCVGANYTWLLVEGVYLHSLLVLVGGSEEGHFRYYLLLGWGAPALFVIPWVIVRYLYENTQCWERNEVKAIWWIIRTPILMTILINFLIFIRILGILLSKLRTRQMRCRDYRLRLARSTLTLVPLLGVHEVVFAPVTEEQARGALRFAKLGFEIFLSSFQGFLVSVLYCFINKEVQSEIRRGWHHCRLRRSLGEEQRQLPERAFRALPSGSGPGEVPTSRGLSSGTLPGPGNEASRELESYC

T2: human GIP receptor (human, UniProt P48546 22-466)
T2 sequence (looked up): T1 sequence (looked up)

B1: Example 292 (peptide)
peptide: YXEGTXTSDKXIXLDXKAQXEFIXXLIEGGPSSGAPPPS
modifications: Y-Aib-EGT-αMeF(2F)-TSDK((2-[2-(2-Amino-ethoxy)-ethoxy]-acetyl)2-(γ-Glu)-CO-(CH2)10-CH3)-Aib-I-αMeL-LD-Orn-K((2-[2-(2-Amino-ethoxy)-ethoxy]-acetyl)2-(γ-Glu)-CO-(CH2)10-CH3)AQ-Aib-EFI-(D-Glu)-αMeY-LIEGGPSSGAPPPS-NH2
B2: Example 293 (peptide)
peptide: B1 peptide with X11S, F22X
modifications: Y-Aib-EGT-αMeF(2F)-TSDK((2-[2-(2-Amino-ethoxy)-ethoxy]-acetyl)2-(γ-Glu)-CO-(CH2)10-CH3)SI-αMeL-LD-Orn-K((2-[2-(2-Amino-ethoxy)-ethoxy]-acetyl)2-(γ-Glu)-CO-(CH2)10-CH3)AQ-Aib-E-αMeF-I-(D-Glu)-αMeY-LIEGGPSSGAPPPS-NH2
B3: Example 298 (peptide)
peptide: B1 peptide with K10X, X11S, E21K, E28X
modifications: Y-Aib-EGT-αMeF(2F)-TSD-4Pal-SI-αMeL-LD-Orn-K((2-[2-(2-Amino-ethoxy)-ethoxy]-acetyl)2-(γ-Glu)-CO-(CH2)10-CH3)AQ-Aib-K((2-[2-(2-Amino-ethoxy)-ethoxy]-acetyl)2-(γ-Glu)-CO-(CH2)10-CH3)FI-(D-Glu)-αMeY-LI-Orn-GGPSSGAPPPS-NH2
B4: Example 299 (peptide)
peptide: B1 peptide with K10X, X11S, E21X, E28K
modifications: Y-Aib-EGT-αMeF(2F)-TSD-4Pal-SI-αMeL-LD-Orn-K((2-[2-(2-Amino-ethoxy)-ethoxy]-acetyl)2-(γ-Glu)-CO-(CH2)10-CH3)AQ-Aib-Orn-FI-(D-Glu)-αMeY-LIK((2-[2-(2-Amino-ethoxy)-ethoxy]-acetyl)2-(γ-Glu)-CO-(CH2)10-CH3)GGPSSGAPPPS-NH2
B5: Example 300 (peptide)
peptide: B1 peptide with K10Y, E21K
modifications: Y-Aib-EGT-αMeF(2F)-TSDY-Aib-I-αMeL-LD-Orn-K((2-[2-(2-Amino-ethoxy)-ethoxy]-acetyl)2-(γ-Glu)-CO-(CH2)10-CH3)AQ-Aib-K((2-[2-(2-Amino-ethoxy)-ethoxy]-acetyl)2-(γ-Glu)-CO-(CH2)10-CH3)FI-(D-Glu)-αMeY-LIEGGPSSGAPPPS-NH2
B6: Example 301 (peptide)
peptide: B1 peptide with K10Y, E28K
modifications: Y-Aib-EGT-αMeF(2F)-TSDY-Aib-I-αMeL-LD-Orn-K((2-[2-(2-Amino-ethoxy)-ethoxy]-acetyl)2-(γ-Glu)-CO-(CH2)10-CH3)AQ-Aib-EFI-(D-Glu)-αMeY-LIK((2-[2-(2-Amino-ethoxy)-ethoxy]-acetyl)2-(γ-Glu)-CO-(CH2)10-CH3)GGPSSGAPPPS-NH2
B7: Example 302 (peptide)
peptide: YXEGTXTSDYXIXLDXKAQXEFIXXLIEGGPSSGAPPPSK
modifications: Y-Aib-EGT-αMeF(2F)-TSDY-Aib-I-αMeL-LD-Orn-K((2-[2-(2-Amino-ethoxy)-ethoxy]-acetyl)2-(γ-Glu)-CO-(CH2)10-CH3)AQ-Aib-EFI-(D-Glu)-αMeY-LIEGGPSSGAPPPSK((2-[2-(2-Amino-ethoxy)-ethoxy]-acetyl)2-(γ-Glu)-CO-(CH2)10-CH3)-NH2
B8: Example 318 (peptide)
peptide: B1 peptide with K10V, E21K
modifications: Y-Aib-EGT-αMeF(2F)-TSDV-Aib-I-αMeL-LD-Orn-K((2-[2-(2-Amino-ethoxy)-ethoxy]-acetyl)2-(γ-Glu)-CO-(CH2)12-CO2H)AQ-Aib-K((2-[2-(2-Amino-ethoxy)-ethoxy]-acetyl)2-(γ-Glu)-CO-(CH2)12-CO2H)FI-(D-Glu)-αMeY-LIEGGPSSGAPPPS-NH2
B9: Example 319 (peptide)
peptide: B1 peptide with K10V, E21K
modifications: Y-Aib-EGT-αMeF(2F)-TSDV-Aib-I-αMeL-LD-Orn-K((2-[2-(2-Amino-ethoxy)-ethoxy]-acetyl)2-(γ-Glu)-(10-(4-carboxyphenoxy)decanoyl))AQ-Aib-K((2-[2-(2-Amino-ethoxy)-ethoxy]-acetyl)2-(γ-Glu)-(10-(4-carboxyphenoxy)decanoyl))FI-(D-Glu)-αMeY-LIEGGPSSGAPPPS-NH2
B10: Example 322 (peptide)
peptide: B1 peptide with K10X, E21K
modifications: Y-Aib-EGT-αMeF(2F)-TSD-4Pal-Aib-I-αMeL-LD-Orn-K((2-[2-(2-Amino-ethoxy)-ethoxy]-acetyl)2-(γ-Glu)-CO-(CH2)10-CH3)AQ-Aib-K((2-[2-(2-Amino-ethoxy)-ethoxy]-acetyl)2-(γ-Glu)-CO-(CH2)10-CH3)FI-(D-Glu)-αMeY-LIEGGPSSGAPPPS-NH2
B11: Example 324 (peptide)
peptide: B7 peptide with Y10X
modifications: Y-Aib-EGT-αMeF(2F)-TSD-4Pal-Aib-I-αMeL-LD-Orn-K((2-[2-(2-Amino-ethoxy)-ethoxy]-acetyl)2-(γ-Glu)-CO-(CH2)10-CH3)AQ-Aib-EFI-(D-Glu)-αMeY-LIEGGPSSGAPPPSK((2-[2-(2-Amino-ethoxy)-ethoxy]-acetyl)2-(γ-Glu)-CO-(CH2)10-CH3)-NH2
B12: Example 325 (peptide)
peptide: Y[Aib]EGT[αMePhe(2-F)]TSDV[Aib]I[αMeL]LD[Orn]K([AEEA-AEEA-γGlu-C14 diacid])AQ[Aib]EFI[dE][αMeY]LIK([AEEA-AEEA-γGlu-C14 diacid])GGPSSGAPPPS-NH2
modifications: N-terminus assumed
SMILES: CC[C@H](C)[C@H](NC(=O)[C@H](CC(C)C)NC(=O)[C@](C)(Cc1ccc(O)cc1)NC(=O)[C@@H](CCC(=O)O)NC(=O)[C@@H](NC(=O)[C@H](Cc1ccccc1)NC(=O)[C@H](CCC(=O)O)NC(=O)C(C)(C)NC(=O)[C@H](CCC(N)=O)NC(=O)[C@H](C)NC(=O)[C@H](CCCCNC(=O)COCCOCCNC(=O)COCCOCCNC(=O)CC[C@H](NC(=O)CCCCCCCCCCCCC(=O)O)C(=O)O)NC(=O)[C@H](CCCN)NC(=O)[C@H](CC(=O)O)NC(=O)[C@H](CC(C)C)NC(=O)[C@](C)(CC(C)C)NC(=O)[C@@H](NC(=O)C(C)(C)NC(=O)[C@@H](NC(=O)[C@H](CC(=O)O)NC(=O)[C@H](CO)NC(=O)[C@@H](NC(=O)[C@](C)(Cc1ccccc1F)NC(=O)[C@@H](NC(=O)CNC(=O)[C@H](CCC(=O)O)NC(=O)C(C)(C)NC(=O)[C@@H](N)Cc1ccc(O)cc1)[C@@H](C)O)[C@@H](C)O)C(C)C)[C@@H](C)CC)[C@@H](C)CC)C(=O)N[C@@H](CCCCNC(=O)COCCOCCNC(=O)COCCOCCNC(=O)CC[C@H](NC(=O)CCCCCCCCCCCCC(=O)O)C(=O)O)C(=O)NCC(=O)NCC(=O)N1CCC[C@H]1C(=O)N[C@@H](CO)C(=O)N[C@@H](CO)C(=O)NCC(=O)N[C@@H](C)C(=O)N1CCC[C@H]1C(=O)N1CCC[C@H]1C(=O)N1CCC[C@H]1C(=O)N[C@@H](CO)C(N)=O
B13: Example 342 (peptide)
peptide: B1 peptide with K10X, K17I, X24K, E28K
modifications: Y-Aib-EGT-αMeF(2F)-TSD-4Pal-Aib-I-αMeL-LD-Orn-IAQ-Aib-EFIK((2-[2-(2-Amino-ethoxy)-ethoxy]-acetyl)3-(γ-Glu)-CO-(CH2)12-CO2H)-αMeY-LIK((2-[2-(2-Amino-ethoxy)-ethoxy]-acetyl)3-(γ-Glu)-CO-(CH2)12-CO2H)GGPSSGAPPPS-NH2
B14: Example 343 (peptide)
peptide: B1 peptide with K10Y, K17I, X24K, E28K
modifications: Y-Aib-EGT-αMeF(2F)-TSDY-Aib-I-αMeL-LD-Orn-IAQ-Aib-EFIK((2-[2-(2-Amino-ethoxy)-ethoxy]-acetyl)3-(γ-Glu)-CO-(CH2)12-CO2H)-αMeY-LIK((2-[2-(2-Amino-ethoxy)-ethoxy]-acetyl)3-(γ-Glu)-CO-(CH2)12-CO2H)GGPSSGAPPPS-NH2
B15: Example 345 (peptide)
peptide: B1 peptide with K10X, K17I, X24K, E28K
modifications: Y-Aib-EGT-αMeF(2F)-TSD-4Pal-Aib-I-αMeL-LD-Orn-IAQ-Aib-EFIK((2-[2-(2-Amino-ethoxy)-ethoxy]-acetyl)3-(γ-Glu)-(10-(4-carboxyphenoxy)decanoyl))-αMeY-LIK((2-[2-(2-Amino-ethoxy)-ethoxy]-acetyl)3-(γ-Glu)-(10-(4-carboxyphenoxy)decanoyl))GGPSSGAPPPS-NH2
B16: Example 346 (peptide)
peptide: B1 peptide with K10Y, K17I, X24K, E28K
modifications: Y-Aib-EGT-αMeF(2F)-TSDY-Aib-I-αMeL-LD-Orn-IAQ-Aib-EFIK(2-[2-(2-Amino-ethoxy)-ethoxy]-acetyl)3-(γ-Glu)-(10-(4-carboxyphenoxy)decanoyl)-αMeY-LIK((2-[2-(2-Amino-ethoxy)-ethoxy]-acetyl)3-(γ-Glu)-(10-(4-carboxyphenoxy)decanoyl)GGPSSGAPPPS-NH2)

Assays:
Assay in all cases: cell-based or functional assay
hGLP-1R = hGLP-1R (Homo sapiens, UniProt P43220)
[1] = target: human glucagon receptor (human) (UniProt P47871)
[2] = target: T1, human GIP receptor (human)
human GLP-1 receptor = human GLP-1 receptor (human, UniProt P43220 24-463)
human glucagon receptor = human glucagon receptor (human, UniProt P47871 26-477)
human GIP receptor = target: T2, human GIP receptor

Binder | cAMP EC50 (hGLP-1R) [nM] | cAMP Emax (hGLP-1R) [%] | cAMP EC50 [1] [nM] | cAMP EC50 [2] [nM] | cAMP EC50 (1.0% HSA) (human GLP-1 receptor) [nM] | cAMP EC50 (1.0% HSA) (human glucagon receptor) [nM] | cAMP EC50 (1.0% HSA) (human GIP receptor) [nM] | cAMP Emax [2] [%] | cAMP Emax (1.0% HSA) (human GLP-1 receptor) [%] | cAMP Emax (1.0% HSA) (human GIP receptor) [%]
B1 | 0.0758 | 104 | > 9950 | 0.0062 | 4.35 | > 9950 | 0.416 |  |  | 
B2 | 0.102 | 102 | > 9950 | 0.00915 | 10.7 | > 9950 | 0.987 | 102 | 99.4 | 96.6
B3 | 0.19 | 106 | > 9950 |  | 3.64 | > 9950 | 0.237 | 97.4 |  | 95
B4 | 0.126 | 103 | > 9950 | 0.0104 | 2.58 | > 9950 | 0.204 | 101 | 102 | 
B5 | 0.194 | 107 | > 9950 | 0.0128 | 19.6 | > 9950 | 1.25 | 102 |  | 91.5
B6 | 0.175 | 99.2 | > 9950 | 0.0128 | 12.9 | > 9950 | 0.919 | 97.4 |  | 85.5
B7 | 0.0917 | 103 | > 9950 | 0.00916 | 6.55 | > 9950 | 0.453 | 100 | 99.4 | 
B8 | 0.219 | 99.9 | > 9950 | 0.0402 | 28.7 | > 9950 | 5.42 | 106 |  | 
B9 | 0.18 | 100 | > 9950 | 0.0196 | 28.1 | > 9950 | 3.35 | 98.1 | 114 | 
B10 | 0.144 | 100 | > 9950 | 0.00937 | 8.09 | > 9950 | 0.617 | 101 | 94.5 | 
B11 | 0.0647 | 97.6 | > 9950 | 0.00632 | 4.38 | > 9950 | 0.321 | 101 | 99.4 | 
B12 | 0.225 | 97.8 | > 9950 | 0.0485 | 23.5 | > 9950 | 3.96 | 104 | 98.4 | 94.7
B13 |  |  |  |  | 13.6 | > 9950 | 1.04 |  |  | 
B14 |  |  |  |  | 20.2 | > 9950 | 2.38 |  | 98.2 | 90.2
B15 |  |  |  |  | 11.8 | > 9950 | 0.731 |  |  | 
B16 |  |  |  |  | 19 | > 9950 | 1.83 |  | 97.7 | 83.9
